Measurements: US20160319033A1 (INSERM INSTITUT NATIONAL DE LA SANTE ET DE LA RECHERCHE …, published 2016)

Experiments:
[1] = target: T1, human HER3 receptor on cells (human, UniProt P21860 20-1342); assay: flow cytometry competition on SKBR3 cells; NRG varied, displaced molecule: antibody B at a fixed concentration
T1 construct: whole, on cells; also called ErbB3
Experimental: Cells were then washed and further incubated with a 1:60 dilution of appropriate FITC-conjugated secondary antibody (Sigma) for 45 min on ice, before cytometry analysis on a Quanta apparatus (Beckman-Coulter).

[2] = target: T1, human HER3 receptor on cells; assay: fluorescence of d2-labelled NRG on HER2/HER3-transfected 3T3 fibroblasts; unlabelled NRG varied, displaced molecule: d2-labelled NRG
Experimental: (§1) After KREBS washing, fluorescence at 620/670 nm was measured using a Pherastar microplate reader.

[3] = target: T2, HER3 Snap-tagged, on HEK cells (human, UniProt P21860 20-1342, Snap-tag labelled with Lumi4-terbium cryptate donor); assay: Tag-Lite HTRF on HER3 Snap-tagged HEK cells, d2-labelled mAb, co-incubated with NRG
T2 construct: whole, on cells; also called HER3 Snap-tagged HEK cells; not shown: Snap-tag (CisBio Tag-Lite)
Experimental: (§2) After 16 h of incubation, the fluorescence of Lumi4-terbium and d2 was measured respectively at 620 and 665 nm (60 μs delay, 400 μs integration) upon 337 nm excitation on a Pherastar FS instrument.

[4] = target: T2, HER3 Snap-tagged, on HEK cells; assay: Tag-Lite HTRF on HER3 Snap-tagged HEK cells; d2-labelled 9F7-F11 varied; without NRG
Experimental: as §2

[5] = target: T1, human HER3 receptor on cells; assay: fluorescence of d2-labelled NRG on HER2/HER3-transfected 3T3 fibroblasts; 9F7-F11 varied; half-maximal enhancement of the binding of labelled NRG to HER3
Experimental: as §1

[6] = target: T2, HER3 Snap-tagged, on HEK cells; assay: Tag-Lite HTRF on HER3 Snap-tagged HEK cells; d2-labelled 9F7-F11 varied; co-incubated with NRG (legend printed 'NRG 100 mM')
Experimental: as §2

[7] = target: T2, HER3 Snap-tagged, on HEK cells; assay: Tag-Lite HTRF on HER3 Snap-tagged HEK cells, with NRG against without NRG
Experimental: as §2

[8] = target: T2, HER3 Snap-tagged, on HEK cells; assay: Tag-Lite HTRF on HER3 Snap-tagged HEK cells, d2-labelled mAb, without NRG
Experimental: as §2

Binder | IC50 (read off the curve) [1] | IC50 (read off the curve) [2] | Kd [3] | EC50 (read off the curve) [4] | EC50 (read off the curve) [5] | EC50 (read off the curve) [6] | fold increase of affinity with NRG against without NRG [7] | Kd [8]
neuregulin (NRG) (ligand, UniProt Q02297-6 177-241, looked up, also: d2 dye label as tracer, site not given here, also called neuregulin 131 (as printed, probably neuregulin beta1); heregulin) SHLVKCAEKEKTFCVNGGECFMVKDLSNPSRYLCKCPNEFTGDRCQNYVMASFYKHLGIEFMEAE | ~2 nM | ~5 nM | – | – | – | – | – | –
murine anti-human-HER3 monoclonal antibody 9F7-F11 (antibody, V domains shown, Murine hybridoma antibody; also called mAb 9F7-F11; anti-HER3 Ab 9F7-F11) VH: EVKLVESGGGLVQPGGSLKLSCAASGFTFSSYTMSWVRQTPEKRLEWVAYISDGGGVTYYPDTIKGRFTISRDNAKNTLYLQMSSLKSEDTAMYYCARDRYGLFAYWGQGTLVTVSA VL: DIVMTQSQKFMSTSVGDRVSITCKASQNVGIAVAWYQQKPGQSPKLLIYSASNRYTGVPDRFTGSGSGTDFTLTISNMQSEDLADYFCQQYSNYPYTFGGGTKLEIK | – | – | 0.47 nM | ~2 nM | ~10 nM | ~0.5 nM | 6 fold | 2.33 nM
